Earlier results on two substances are cited in publication PMC5669632.

The target in data set [1] is Glu118 (UniProt position 118, WFVGREQERRG). Briefly: electrophysiology. The conditions noted are these: not stated for the quoted data (the present recordings are said to follow the same earlier protocols).
Data set [2] has as its target His25 (UniProt position 25, HGSALHWRAAG). The data set is described as follows: electrophysiology. The conditions noted are these: not stated for the quoted data (the present recordings are said to follow the same earlier protocols).
Setting [3] is: closed channel state (model parameter pKa closed).
The mark [4] stands for this setting: open channel state (model parameter pKa open).

With “KcsA potassium channel, H25R/E71A (Streptomyces lividans; H25R;E71A)”, the pKa is recorded as 5.0 (0.1) in data set [1] (setting [3]) and 6.2 (0.1) in data set [1] (setting [4]).

On to “KcsA potassium channel, E71A (non-inactivating control channel) (Streptomyces lividans; E71A)”, for which the values for the pKa in data set [2] (setting [3]) and in data set [2] (setting [4]) were 4.8 (N/A) and 7.6, respectively.
